Reference: the Human Domainome abundance scans (Beltran et al. 2025)
± gives the uncertainty stated by the source.

B1: COUP transcription factor 1, residues 83 to 159; numbered along this chain, P10589 (parent)
chain: HIECVVCGDKSSGKHYGQFTCEGCKSFFKRSVRRNLTYTCRANRNCPIDQHHRNQCQYCRLKKCLKVGMRREAVQRG

Variants of: B1
Experiment: abundance fitness (aPCA) (normalised: wild type 0, dead -1); higher = more abundant; growth selection in yeast, the domain comes from the species named
Settings: Homo sapiens

Row | Variant | abundance fitness
1 | HIECVVCGDKSSGKHYGQFTCEGCKSFFKRSVRRNLTYTCRANRNCPIDQHHRNQCQYCRLKKCLKMGMRREAVQRG | 0.099 ± 0.045
2 | HIECVVCGDKSSGKHYGQFTCEGCKSFFKRSVRRNLTYTCRANRNCPIDQHHRNQCQYCRLKKCLKNGMRREAVQRG | -0.125 ± 0.072
3 | HIECVVCGDKSSGKHYGQFTCEGCKSFFKRSVRRNLTYTCRANRNCPIDQHHRNQCQYCRLKKCLKPGMRREAVQRG | -0.953 ± 0.14
4 | HIECVVCGDKSSGKHYGQFTCEGCKSFFKRSVRRNLTYTCRANRNCPIDQHHRNQCQYCRLKKCLKQGMRREAVQRG | 0.036 ± 0.046
5 | HIECVVCGDKSSGKHYGQFTCEGCKSFFKRSVRRNLTYTCRANRNCPIDQHHRNQCQYCRLKKCLKRGMRREAVQRG | -0.16 ± 0.037
6 | HIECVVCGDKSSGKHYGQFTCEGCKSFFKRSVRRNLTYTCRANRNCPIDQHHRNQCQYCRLKKCLKSGMRREAVQRG | -0.117 ± 0.045
7 | HIECVVCGDKSSGKHYGQFTCEGCKSFFKRSVRRNLTYTCRANRNCPIDQHHRNQCQYCRLKKCLKWGMRREAVQRG | -0.325 ± 0.053
8 | HIECVVCGDKSSGKHYGQFTCEGCKSFFKRSVRRNLTYTCRANRNCPIDQHHRNQCQYCRLKKCLKYGMRREAVQRG | -0.18 ± 0.093
9 | HIECVVCGDKSSGKHYGQFTCEGCKSFFKRSVRRNLTYTCRANRNCPIDQHHRNQCQYCRLKKCLKVAMRREAVQRG | -0.729 ± 0.069
10 | HIECVVCGDKSSGKHYGQFTCEGCKSFFKRSVRRNLTYTCRANRNCPIDQHHRNQCQYCRLKKCLKVCMRREAVQRG | -0.597 ± 0.094
11 | HIECVVCGDKSSGKHYGQFTCEGCKSFFKRSVRRNLTYTCRANRNCPIDQHHRNQCQYCRLKKCLKVDMRREAVQRG | -0.728 ± 0.11
12 | HIECVVCGDKSSGKHYGQFTCEGCKSFFKRSVRRNLTYTCRANRNCPIDQHHRNQCQYCRLKKCLKVEMRREAVQRG | -0.524 ± 0.06
13 | HIECVVCGDKSSGKHYGQFTCEGCKSFFKRSVRRNLTYTCRANRNCPIDQHHRNQCQYCRLKKCLKVFMRREAVQRG | -0.609 ± 0.12
14 | HIECVVCGDKSSGKHYGQFTCEGCKSFFKRSVRRNLTYTCRANRNCPIDQHHRNQCQYCRLKKCLKVHMRREAVQRG | -0.775 ± 0.18
15 | HIECVVCGDKSSGKHYGQFTCEGCKSFFKRSVRRNLTYTCRANRNCPIDQHHRNQCQYCRLKKCLKVIMRREAVQRG | -0.494 ± 0.1
16 | HIECVVCGDKSSGKHYGQFTCEGCKSFFKRSVRRNLTYTCRANRNCPIDQHHRNQCQYCRLKKCLKVKMRREAVQRG | -0.747 ± 0.099
17 | HIECVVCGDKSSGKHYGQFTCEGCKSFFKRSVRRNLTYTCRANRNCPIDQHHRNQCQYCRLKKCLKVLMRREAVQRG | -0.572 ± 0.064
18 | HIECVVCGDKSSGKHYGQFTCEGCKSFFKRSVRRNLTYTCRANRNCPIDQHHRNQCQYCRLKKCLKVMMRREAVQRG | -0.624 ± 0.084
19 | HIECVVCGDKSSGKHYGQFTCEGCKSFFKRSVRRNLTYTCRANRNCPIDQHHRNQCQYCRLKKCLKVNMRREAVQRG | -0.211 ± 0.085
20 | HIECVVCGDKSSGKHYGQFTCEGCKSFFKRSVRRNLTYTCRANRNCPIDQHHRNQCQYCRLKKCLKVPMRREAVQRG | -0.939 ± 0.15
21 | HIECVVCGDKSSGKHYGQFTCEGCKSFFKRSVRRNLTYTCRANRNCPIDQHHRNQCQYCRLKKCLKVQMRREAVQRG | -0.731 ± 0.1
22 | HIECVVCGDKSSGKHYGQFTCEGCKSFFKRSVRRNLTYTCRANRNCPIDQHHRNQCQYCRLKKCLKVRMRREAVQRG | -0.65 ± 0.049
23 | HIECVVCGDKSSGKHYGQFTCEGCKSFFKRSVRRNLTYTCRANRNCPIDQHHRNQCQYCRLKKCLKVSMRREAVQRG | -0.593 ± 0.068
24 | HIECVVCGDKSSGKHYGQFTCEGCKSFFKRSVRRNLTYTCRANRNCPIDQHHRNQCQYCRLKKCLKVTMRREAVQRG | -0.677 ± 0.075

Row | Variant | abundance fitness
25 | HIECVVCGDKSSGKHYGQFTCEGCKSFFKRSVRRNLTYTCRANRNCPIDQHHRNQCQYCRLKKCLKVVMRREAVQRG | -0.671 ± 0.059
26 | HIECVVCGDKSSGKHYGQFTCEGCKSFFKRSVRRNLTYTCRANRNCPIDQHHRNQCQYCRLKKCLKVWMRREAVQRG | -0.666 ± 0.085
27 | HIECVVCGDKSSGKHYGQFTCEGCKSFFKRSVRRNLTYTCRANRNCPIDQHHRNQCQYCRLKKCLKVYMRREAVQRG | -0.436 ± 0.12
28 | HIECVVCGDKSSGKHYGQFTCEGCKSFFKRSVRRNLTYTCRANRNCPIDQHHRNQCQYCRLKKCLKVGARREAVQRG | -0.943 ± 0.094
29 | HIECVVCGDKSSGKHYGQFTCEGCKSFFKRSVRRNLTYTCRANRNCPIDQHHRNQCQYCRLKKCLKVGCRREAVQRG | -0.38 ± 0.11
30 | HIECVVCGDKSSGKHYGQFTCEGCKSFFKRSVRRNLTYTCRANRNCPIDQHHRNQCQYCRLKKCLKVGDRREAVQRG | -1.06 ± 0.22
31 | HIECVVCGDKSSGKHYGQFTCEGCKSFFKRSVRRNLTYTCRANRNCPIDQHHRNQCQYCRLKKCLKVGERREAVQRG | -0.723 ± 0.083
32 | HIECVVCGDKSSGKHYGQFTCEGCKSFFKRSVRRNLTYTCRANRNCPIDQHHRNQCQYCRLKKCLKVGGRREAVQRG | -0.711 ± 0.053
33 | HIECVVCGDKSSGKHYGQFTCEGCKSFFKRSVRRNLTYTCRANRNCPIDQHHRNQCQYCRLKKCLKVGHRREAVQRG | -1.08 ± 0.26
34 | HIECVVCGDKSSGKHYGQFTCEGCKSFFKRSVRRNLTYTCRANRNCPIDQHHRNQCQYCRLKKCLKVGIRREAVQRG | -0.484 ± 0.099
35 | HIECVVCGDKSSGKHYGQFTCEGCKSFFKRSVRRNLTYTCRANRNCPIDQHHRNQCQYCRLKKCLKVGLRREAVQRG | -0.027 ± 0.035
36 | HIECVVCGDKSSGKHYGQFTCEGCKSFFKRSVRRNLTYTCRANRNCPIDQHHRNQCQYCRLKKCLKVGNRREAVQRG | -0.864 ± 0.19
37 | HIECVVCGDKSSGKHYGQFTCEGCKSFFKRSVRRNLTYTCRANRNCPIDQHHRNQCQYCRLKKCLKVGPRREAVQRG | -0.661 ± 0.097
38 | HIECVVCGDKSSGKHYGQFTCEGCKSFFKRSVRRNLTYTCRANRNCPIDQHHRNQCQYCRLKKCLKVGQRREAVQRG | -0.831 ± 0.11
39 | HIECVVCGDKSSGKHYGQFTCEGCKSFFKRSVRRNLTYTCRANRNCPIDQHHRNQCQYCRLKKCLKVGRRREAVQRG | -0.737 ± 0.058
40 | HIECVVCGDKSSGKHYGQFTCEGCKSFFKRSVRRNLTYTCRANRNCPIDQHHRNQCQYCRLKKCLKVGSRREAVQRG | -0.783 ± 0.079
41 | HIECVVCGDKSSGKHYGQFTCEGCKSFFKRSVRRNLTYTCRANRNCPIDQHHRNQCQYCRLKKCLKVGTRREAVQRG | -0.719 ± 0.095
42 | HIECVVCGDKSSGKHYGQFTCEGCKSFFKRSVRRNLTYTCRANRNCPIDQHHRNQCQYCRLKKCLKVGWRREAVQRG | -0.629 ± 0.057
43 | HIECVVCGDKSSGKHYGQFTCEGCKSFFKRSVRRNLTYTCRANRNCPIDQHHRNQCQYCRLKKCLKVGYRREAVQRG | -0.77 ± 0.16
44 | HIECVVCGDKSSGKHYGQFTCEGCKSFFKRSVRRNLTYTCRANRNCPIDQHHRNQCQYCRLKKCLKVGMAREAVQRG | 0.023 ± 0.038
45 | HIECVVCGDKSSGKHYGQFTCEGCKSFFKRSVRRNLTYTCRANRNCPIDQHHRNQCQYCRLKKCLKVGMCREAVQRG | -0.051 ± 0.067
46 | HIECVVCGDKSSGKHYGQFTCEGCKSFFKRSVRRNLTYTCRANRNCPIDQHHRNQCQYCRLKKCLKVGMDREAVQRG | 0.163 ± 0.052
47 | HIECVVCGDKSSGKHYGQFTCEGCKSFFKRSVRRNLTYTCRANRNCPIDQHHRNQCQYCRLKKCLKVGMEREAVQRG | 0.135 ± 0.038
48 | HIECVVCGDKSSGKHYGQFTCEGCKSFFKRSVRRNLTYTCRANRNCPIDQHHRNQCQYCRLKKCLKVGMFREAVQRG | 0.002 ± 0.12

Row | Variant | abundance fitness
49 | HIECVVCGDKSSGKHYGQFTCEGCKSFFKRSVRRNLTYTCRANRNCPIDQHHRNQCQYCRLKKCLKVGMGREAVQRG | -0.152 ± 0.033
50 | HIECVVCGDKSSGKHYGQFTCEGCKSFFKRSVRRNLTYTCRANRNCPIDQHHRNQCQYCRLKKCLKVGMHREAVQRG | -0.004 ± 0.085
51 | HIECVVCGDKSSGKHYGQFTCEGCKSFFKRSVRRNLTYTCRANRNCPIDQHHRNQCQYCRLKKCLKVGMIREAVQRG | 0.046 ± 0.16
52 | HIECVVCGDKSSGKHYGQFTCEGCKSFFKRSVRRNLTYTCRANRNCPIDQHHRNQCQYCRLKKCLKVGMKREAVQRG | 0.153 ± 0.05
53 | HIECVVCGDKSSGKHYGQFTCEGCKSFFKRSVRRNLTYTCRANRNCPIDQHHRNQCQYCRLKKCLKVGMLREAVQRG | 0.07 ± 0.056
54 | HIECVVCGDKSSGKHYGQFTCEGCKSFFKRSVRRNLTYTCRANRNCPIDQHHRNQCQYCRLKKCLKVGMMREAVQRG | 0.173 ± 0.095
55 | HIECVVCGDKSSGKHYGQFTCEGCKSFFKRSVRRNLTYTCRANRNCPIDQHHRNQCQYCRLKKCLKVGMNREAVQRG | 0.071 ± 0.092
56 | HIECVVCGDKSSGKHYGQFTCEGCKSFFKRSVRRNLTYTCRANRNCPIDQHHRNQCQYCRLKKCLKVGMPREAVQRG | -0.161 ± 0.061
57 | HIECVVCGDKSSGKHYGQFTCEGCKSFFKRSVRRNLTYTCRANRNCPIDQHHRNQCQYCRLKKCLKVGMQREAVQRG | 0.112 ± 0.053
58 | HIECVVCGDKSSGKHYGQFTCEGCKSFFKRSVRRNLTYTCRANRNCPIDQHHRNQCQYCRLKKCLKVGMSREAVQRG | 0.144 ± 0.039
59 | HIECVVCGDKSSGKHYGQFTCEGCKSFFKRSVRRNLTYTCRANRNCPIDQHHRNQCQYCRLKKCLKVGMTREAVQRG | 0.023 ± 0.048
60 | HIECVVCGDKSSGKHYGQFTCEGCKSFFKRSVRRNLTYTCRANRNCPIDQHHRNQCQYCRLKKCLKVGMVREAVQRG | 0.032 ± 0.056
61 | HIECVVCGDKSSGKHYGQFTCEGCKSFFKRSVRRNLTYTCRANRNCPIDQHHRNQCQYCRLKKCLKVGMYREAVQRG | -0.323 ± 0.12
62 | HIECVVCGDKSSGKHYGQFTCEGCKSFFKRSVRRNLTYTCRANRNCPIDQHHRNQCQYCRLKKCLKVGMRAEAVQRG | 0.007 ± 0.035
63 | HIECVVCGDKSSGKHYGQFTCEGCKSFFKRSVRRNLTYTCRANRNCPIDQHHRNQCQYCRLKKCLKVGMRCEAVQRG | -0.062 ± 0.062
64 | HIECVVCGDKSSGKHYGQFTCEGCKSFFKRSVRRNLTYTCRANRNCPIDQHHRNQCQYCRLKKCLKVGMRDEAVQRG | 0.017 ± 0.056
65 | HIECVVCGDKSSGKHYGQFTCEGCKSFFKRSVRRNLTYTCRANRNCPIDQHHRNQCQYCRLKKCLKVGMRFEAVQRG | 0.016 ± 0.066
66 | HIECVVCGDKSSGKHYGQFTCEGCKSFFKRSVRRNLTYTCRANRNCPIDQHHRNQCQYCRLKKCLKVGMRGEAVQRG | -0.083 ± 0.034
67 | HIECVVCGDKSSGKHYGQFTCEGCKSFFKRSVRRNLTYTCRANRNCPIDQHHRNQCQYCRLKKCLKVGMRHEAVQRG | -0.103 ± 0.084
68 | HIECVVCGDKSSGKHYGQFTCEGCKSFFKRSVRRNLTYTCRANRNCPIDQHHRNQCQYCRLKKCLKVGMRIEAVQRG | 0.084 ± 0.057
69 | HIECVVCGDKSSGKHYGQFTCEGCKSFFKRSVRRNLTYTCRANRNCPIDQHHRNQCQYCRLKKCLKVGMRKEAVQRG | 0.104 ± 0.049
70 | HIECVVCGDKSSGKHYGQFTCEGCKSFFKRSVRRNLTYTCRANRNCPIDQHHRNQCQYCRLKKCLKVGMRLEAVQRG | -0.039 ± 0.038
71 | HIECVVCGDKSSGKHYGQFTCEGCKSFFKRSVRRNLTYTCRANRNCPIDQHHRNQCQYCRLKKCLKVGMRMEAVQRG | 0.151 ± 0.045
